{"source": "patent US20230220589A1", "key": {"[1]": {"molecular_target": "M44-modified P NTAA target peptides", "test": "encoding assay; P2 W"}, "[2]": {"molecular_target": "M44-modified M NTAA target peptides", "test": "encoding assay; P2 W"}, "[3]": {"molecular_target": "M44-modified Q NTAA target peptides", "test": "encoding assay; P2 W"}, "[4]": {"molecular_target": "M44-modified L NTAA target peptides (M44-L-P2-peptide)", "test": "encoding assay; P2 W"}, "[5]": {"molecular_target": "M44-modified S NTAA target peptides", "test": "encoding assay; P2 W"}, "[6]": {"molecular_target": "M44-modified N NTAA target peptides", "test": "encoding assay; P2 W"}, "[7]": {"molecular_target": "M44-modified G NTAA target peptides (M44-G-P2-peptide)", "test": "encoding assay; P2 W"}, "[8]": {"molecular_target": "M44-modified Y NTAA target peptides (M44-Y-P2-peptide)", "test": "encoding assay; P2 W"}, "[9]": {"molecular_target": "M44-modified I NTAA target peptides (M44-I-P2-peptide)", "test": "encoding assay; P2 W"}, "[10]": {"molecular_target": "M44-modified A NTAA target peptides (M44-A-P2-peptide)", "test": "encoding assay; P2 W"}, "[11]": {"molecular_target": "M44-modified V NTAA target peptides", "test": "encoding assay; P2 W"}, "[12]": {"molecular_target": "M44-modified H NTAA target peptides", "test": "encoding assay; P2 W"}, "[13]": {"molecular_target": "M44-modified W NTAA target peptides", "test": "encoding assay; P2 W"}, "[14]": {"molecular_target": "M44-modified T NTAA target peptides", "test": "encoding assay; P2 W"}, "[15]": {"molecular_target": "M44-modified P NTAA target peptides", "test": "encoding assay; P2 V"}, "[16]": {"molecular_target": "M44-modified M NTAA target peptides", "test": "encoding assay; P2 V"}, "[17]": {"molecular_target": "M44-modified Q NTAA target peptides", "test": "encoding assay; P2 V"}, "[18]": {"molecular_target": "M44-modified L NTAA target peptides (M44-L-P2-peptide)", "test": "encoding assay; P2 V"}, "[19]": {"molecular_target": "M44-modified D NTAA target peptides", "test": "encoding assay; P2 V"}, "[20]": {"molecular_target": "M44-modified S NTAA target peptides", "test": "encoding assay; P2 V"}, "[21]": {"molecular_target": "M44-modified N NTAA target peptides", "test": "encoding assay; P2 V"}, "[22]": {"molecular_target": "M44-modified Y NTAA target peptides (M44-Y-P2-peptide)", "test": "encoding assay; P2 V"}, "[23]": {"molecular_target": "M44-modified I NTAA target peptides (M44-I-P2-peptide)", "test": "encoding assay; P2 V"}, "[24]": {"molecular_target": "M44-modified A NTAA target peptides (M44-A-P2-peptide)", "test": "encoding assay; P2 V"}, "[25]": {"molecular_target": "M44-modified W NTAA target peptides", "test": "encoding assay; P2 V"}, "[26]": {"molecular_target": "M44-modified T NTAA target peptides", "test": "encoding assay; P2 V"}, "[27]": {"molecular_target": "M44-modified F NTAA target peptides (M44-F-P2-peptide)", "test": "encoding assay; P2 V"}, "[28]": {"molecular_target": "M44-modified P NTAA target peptides", "test": "encoding assay; P2 Y"}, "[29]": {"molecular_target": "M44-modified M NTAA target peptides", "test": "encoding assay; P2 Y"}, "[30]": {"molecular_target": "M44-modified E NTAA target peptides", "test": "encoding assay; P2 Y"}, "[31]": {"molecular_target": "M44-modified L NTAA target peptides (M44-L-P2-peptide)", "test": "encoding assay; P2 Y"}, "[32]": {"molecular_target": "M44-modified D NTAA target peptides", "test": "encoding assay; P2 Y"}, "[33]": {"molecular_target": "M44-modified N NTAA target peptides", "test": "encoding assay; P2 Y"}, "[34]": {"molecular_target": "M44-modified G NTAA target peptides (M44-G-P2-peptide)", "test": "encoding assay; P2 Y"}, "[35]": {"molecular_target": "M44-modified Y NTAA target peptides (M44-Y-P2-peptide)", "test": "encoding assay; P2 Y"}, "[36]": {"molecular_target": "M44-modified I NTAA target peptides (M44-I-P2-peptide)", "test": "encoding assay; P2 Y"}, "[37]": {"molecular_target": "M44-modified A NTAA target peptides (M44-A-P2-peptide)", "test": "encoding assay; P2 Y"}, "[38]": {"molecular_target": "M44-modified H NTAA target peptides", "test": "encoding assay; P2 Y"}, "[39]": {"molecular_target": "M44-modified W NTAA target peptides", "test": "encoding assay; P2 Y"}, "[40]": {"molecular_target": "M44-modified T NTAA target peptides", "test": "encoding assay; P2 Y"}, "[41]": {"molecular_target": "M44-modified F NTAA target peptides (M44-F-P2-peptide)", "test": "encoding assay; P2 Y"}, "[42]": {"molecular_target": "M44-modified M NTAA target peptides", "test": "encoding assay; P2 G"}, "[43]": {"molecular_target": "M44-modified E NTAA target peptides", "test": "encoding assay; P2 G"}, "[44]": {"molecular_target": "M44-modified Q NTAA target peptides", "test": "encoding assay; P2 G"}, "[45]": {"molecular_target": "M44-modified L NTAA target peptides (M44-L-P2-peptide)", "test": "encoding assay; P2 G"}, "[46]": {"molecular_target": "M44-modified Y NTAA target peptides (M44-Y-P2-peptide)", "test": "encoding assay; P2 G"}, "[47]": {"molecular_target": "M44-modified I NTAA target peptides (M44-I-P2-peptide)", "test": "encoding assay; P2 G"}, "[48]": {"molecular_target": "M44-modified V NTAA target peptides", "test": "encoding assay; P2 G"}, "[49]": {"molecular_target": "M44-modified W NTAA target peptides", "test": "encoding assay; P2 G"}, "[50]": {"molecular_target": "M44-modified T NTAA target peptides", "test": "encoding assay; P2 G"}, "[51]": {"molecular_target": "M44-modified F NTAA target peptides (M44-F-P2-peptide)", "test": "encoding assay; P2 G"}}, "data": [{"binder": "engineered M44-A binder (SEQ ID NO: 42) (designed binder, not shown: small tags and cut ends; large carriers) QVSVQPNFQQDKFLGRWFVAGLASNSSWDREKVAALSGAKMVVAPATDGGLNVTRTMLRKNQCETYTGLLQPAGSLGSYSWRSPHPGSTGSESVVETDYDQYALVYGQGSKGPGEDLRAAALWSRTQTPRAELKEKFTAFSKAQGFTEDTIVFLPQTDKCMTEQ", "values": [{"measurement": "encoding yield", "setting": "[1]", "result": 0.04}, {"measurement": "encoding yield", "setting": "[2]", "result": 0.03}, {"measurement": "encoding yield", "setting": "[3]", "result": 0.03}, {"measurement": "encoding yield", "setting": "[4]", "result": 0.07}, {"measurement": "encoding yield", "setting": "[5]", "result": 0.13}, {"measurement": "encoding yield", "setting": "[6]", "result": 0.05}, {"measurement": "encoding yield", "setting": "[7]", "result": 0.02}, {"measurement": "encoding yield", "setting": "[8]", "result": 0.06}, {"measurement": "encoding yield", "setting": "[9]", "result": 0.21}, {"measurement": "encoding yield", "setting": "[10]", "result": 0.28}, {"measurement": "encoding yield", "setting": "[11]", "result": 0.22}, {"measurement": "encoding yield", "setting": "[12]", "result": 0.04}, {"measurement": "encoding yield", "setting": "[13]", "result": 0.05}, {"measurement": "encoding yield", "setting": "[14]", "result": 0.13}, {"measurement": "encoding yield", "setting": "[15]", "result": 0.04}, {"measurement": "encoding yield", "setting": "[16]", "result": 0.04}, {"measurement": "encoding yield", "setting": "[17]", "result": 0.04}, {"measurement": "encoding yield", "setting": "[18]", "result": 0.04}, {"measurement": "encoding yield", "setting": "[19]", "result": 0.03}, {"measurement": "encoding yield", "setting": "[20]", "result": 0.05}, {"measurement": "encoding yield", "setting": "[21]", "result": 0.04}, {"measurement": "encoding yield", "setting": "[22]", "result": 0.06}, {"measurement": "encoding yield", "setting": "[23]", "result": 0.05}, {"measurement": "encoding yield", "setting": "[24]", "result": 0.17}, {"measurement": "encoding yield", "setting": "[25]", "result": 0.06}, {"measurement": "encoding yield", "setting": "[26]", "result": 0.12}, {"measurement": "encoding yield", "setting": "[27]", "result": 0.09}, {"measurement": "encoding yield", "setting": "[28]", "result": 0.03}, {"measurement": "encoding yield", "setting": "[29]", "result": 0.06}, {"measurement": "encoding yield", "setting": "[30]", "result": 0.02}, {"measurement": "encoding yield", "setting": "[31]", "result": 0.1}, {"measurement": "encoding yield", "setting": "[32]", "result": 0.04}, {"measurement": "encoding yield", "setting": "[33]", "result": 0.03}, {"measurement": "encoding yield", "setting": "[34]", "result": 0.08}, {"measurement": "encoding yield", "setting": "[35]", "result": 0.04}, {"measurement": "encoding yield", "setting": "[36]", "result": 0.11}, {"measurement": "encoding yield", "setting": "[37]", "result": 0.29}, {"measurement": "encoding yield", "setting": "[38]", "result": 0.07}, {"measurement": "encoding yield", "setting": "[39]", "result": 0.05}, {"measurement": "encoding yield", "setting": "[40]", "result": 0.1}, {"measurement": "encoding yield", "setting": "[41]", "result": 0.04}, {"measurement": "encoding yield", "setting": "[42]", "result": 0.01}, {"measurement": "encoding yield", "setting": "[43]", "result": 0.03}, {"measurement": "encoding yield", "setting": "[44]", "result": 0.02}, {"measurement": "encoding yield", "setting": "[45]", "result": 0.03}, {"measurement": "encoding yield", "setting": "[46]", "result": 0.02}, {"measurement": "encoding yield", "setting": "[47]", "result": 0.08}, {"measurement": "encoding yield", "setting": "[48]", "result": 0.05}, {"measurement": "encoding yield", "setting": "[49]", "result": 0.01}, {"measurement": "encoding yield", "setting": "[50]", "result": 0.11}, {"measurement": "encoding yield", "setting": "[51]", "result": 0.04}]}]}
